Assay results published in paper PMC7905540.

Columns and labels:
[1] = test system: T1, XreR2 (Photorhabdus luminescens DJC), ORF:b2ab5127; experiment: MST; details: SPR (Biacore 3000, SA chip), proteins in dialysis buffer: 50 mM Tris/HCl pH 7.5, 10% glycerol, 500 mM NaCl, 2 mM beta-mercaptoethanol; 25 C; 30 ul/min; 1:1 …
T1 sequence: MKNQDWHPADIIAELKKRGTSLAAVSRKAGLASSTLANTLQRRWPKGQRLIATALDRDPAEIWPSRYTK

[2] = test system: T2, XreR1 (Photorhabdus luminescens DJC), ORF:d6b45183; experiment: SPR; details: SPR (Biacore 3000, SA chip), proteins in dialysis buffer: 50 mM Tris/HCl pH 7.5, 10% glycerol, 500 mM NaCl, 2 mM beta-mercaptoethanol; 25 C; 30 ul/min; 1:1 …
T2 sequence: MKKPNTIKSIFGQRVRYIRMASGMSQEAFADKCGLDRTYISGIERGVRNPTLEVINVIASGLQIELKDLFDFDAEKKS

[3] = test system: T1, XreR2 (Photorhabdus luminescens DJC), ORF:b2ab5127; experiment: SPR; details: SPR (Biacore 3000, SA chip), proteins in dialysis buffer: 50 mM Tris/HCl pH 7.5, 10% glycerol, 500 mM NaCl, 2 mM beta-mercaptoethanol; 25 C; 30 ul/min; 1:1 …
[4] = test system: XreR1 (Photorhabdus luminescens DJC); experiment: SPR; details: SPR (Biacore 3000, SA chip), proteins in dialysis buffer: 50 mM Tris/HCl pH 7.5, 10% glycerol, 500 mM NaCl, 2 mM beta-mercaptoethanol, 25 C, 30 ul/min, 1:1 …
[5] = test system: T2, XreR1 (Photorhabdus luminescens DJC), ORF:d6b45183; experiment: MST; details: SPR (Biacore 3000, SA chip), proteins in dialysis buffer: 50 mM Tris/HCl pH 7.5, 10% glycerol, 500 mM NaCl, 2 mM beta-mercaptoethanol; 25 C; 30 ul/min; 1:1 …

GTTTCATAGCACACCTCAGAAACACACTTAAAATGAACATGAGGAAATGGATTGCGAGCAGGAAAAGATAAATGCAAACAGCTATAAGTAATCATTACTCTTACCGAATGATATAAAGTAGATTGGAGCAGCTTATCTCATTGATAAACTACTCCACTTTAATTTACAGCCAC (double strand) [PpTAS]
binding [1]: binds | binding [2]: no binding | binding [3]: binds

PxreR2
Kd ([4]; ka printed 2.8E+05 1/Ms, kd 8.9E-4 1/s (ratio inconsistent with the printed KD)): 0.3 nM

GGGTGCCAGTCTTGATTTTTCATTAATTAATCCTCCGTGTTACGGATAACTTTGATATGAAAAGGTAAGTCGTTACATAGTAGACTATAAGTCACATATGATAACATAACTTACCATAAAAAGTGACTCATAGTCCGTGGTCTGATAAGTAACATCATTCGATACTTATCAG (double strand) [PxreR2]
binding [5]: binds | binding [1]: binds | Kd [2]: 0.3 nM | binding [3]: binds

PxreR1
Kd ([4]; ka 4.5E+06 1/Ms, kd 2.9E-3 1/s): 0.6 nM
